The results in this text go back to patent US20210187091A1 (DUKE UNIVERSITY, published 2021).

Numbering of substitutions follows the chain as printed.

Test [1] has as its target T1, Man9-V3 glycopeptide (HIV-1 clade B JRFL, Man9GlcNAc2 at N301 and at N332; disulfide bridge between C296 and C331 (cyclized); biotin tag).
T1 construct: 30-amino acid synthetic V3 glycopeptide based on the clade B JRFL mini-V3 construct (residues 305-320 deleted); captured by its biotin on streptavidin sensors, or tetramerized on streptavidin for sorting; also called Man-V3 glycopeptide; Man9-V3-biotin
T1 peptide: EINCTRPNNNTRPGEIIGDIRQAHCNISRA
Briefly: BLI, biotinylated Man9-V3 on streptavidin sensors, antibody in solution. In general terms: Biolayer interferometry detects binding as a change in optical thickness at a sensor tip.

Test [2] has as its target T2, cell surface membrane expressed CH848 TF Env trimer (CHO cells) (HIV-1 clade C (CH848 …)).
T2 construct: also called cell surface membrane expressed gp160 trimers; CH848 Env trimer expressed on the cell surface of CHO cells
Briefly: flow cytometry on CHO cells expressing CH848 TF Env trimer.

The target of test [3] is T1, Man9-V3 glycopeptide. Briefly: BLI, biotinylated Man9-V3 on streptavidin sensors, antibody in solution, bivalent avidity model.
Description: Kinetics analyses were performed by global curve fitting using bivalent avidity model and as described in methods (“Affinity measurements” section).
Antibody binding kinetic rate constants (ka, kd) of the Man9-V3 glycopeptide and its aglycone form (16) were measured by Bio-layer Interferometry (BLI, ForteBio Octet Red96) measurements. The BLI assay was performed using streptavidin coated sensors (ForteBio) to capture either biotin-tagged Man₉-V3 glycopeptide or Aglycone-V3 peptide. The V3 peptide immobilized sensors were dipped into varying concentrations of antibodies following blocking of sensors in BSA (0.1%). Antibody concentrations ranged from 0.5 to 150 μg/mL and non-specific binding interactions were subtracted using the control anti-RSV Palivizumab (Synagis) mAb. Rate constants were calculated by global curve fitting analyses to the Bivalent Avidity model of binding responses with a 10 min association and 15 min dissociation interaction time. The dissociation constant (Kd) values without avidity contribution were derived using the initial components of the association and dissociation rates (ka1 and kd1) respectively.

B1: DH270.IA3 (antibody, V domains shown)
VH: EVQLVESGPELKEPGASVKVSCKASGYTFTDYYIHWVRQAPGQGLEWMAWINPTTGRSSFARGFQGRVIMTRETSVSTAYMELRRLRSDDTAVYYCAKAGYIALYVDYSGYPNFNSWGQGTLVTVSS
VL: QSALTQPASVSGSPGQSITISCTGTSYDVGSYNLVSWYQQHPGKAPKLIIYEVSQWPSGVSKRFSGSKSGNTASLTISGLQAEDEAHYYCCSYAGSSTVIFGGGTSLTVL
Regarding B1, in the test with Man9-V3 glycopeptide [1], the Kd was above 10000 nM.

B2: DH270.IA4 (antibody, V domains shown)
VH: QVQLVQSGAEVKKPGASVKVSCKASGYTFTDYYIHWVRQAPGQGLEWMGWINPNTGRTNYAQKFQGRVTMTRDTSISTAYMELSRLRSDDTAVYYCARGGWIGLYYDSSGYPNFDYWGQGTLVTVSS
VL: B1 VL with I49M, Q55K, W56R, K62N, H87D, S106K
notes: Inferred intermediate, recombinant IgG; copies: 2 + 2
Regarding B2, the binding result in test [2] was “no binding (tested: 5 µg/mL)”.

B3: DH270.UCA (antibody, V domains shown)
VH: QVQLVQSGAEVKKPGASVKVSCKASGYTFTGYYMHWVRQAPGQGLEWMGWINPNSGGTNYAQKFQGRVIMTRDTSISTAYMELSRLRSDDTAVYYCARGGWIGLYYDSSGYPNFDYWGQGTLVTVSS
VL: B1 VL with Y27S, I49M, Q55K, W56R, K62N, H87D, S106K
notes: also called UCA4; DH270UCA4
Regarding B3, the binding result in test [2] is on record as “no binding (tested: 5 µg/mL)”.

B4: DH270.IA2 (antibody, V domains shown)
VH: B2 VH with V11M, R87T, R98T
VL: B1 VL with L48Y, I49M, S54N, Q55K, W56R, K62N, H87D, S106K
notes: Inferred intermediate, recombinant IgG
In the case of B4, in test [2], the binding result is given as “no binding (tested: 5 µg/mL)”.

B5: DH270.6 (antibody, V domains shown)
VH: QVQLVQSGAQMKNPGASVKVSCAPSGYTFTDFYIHWLRQAPGQGLQWMGWMNPQTGRTNTARNFQGRVIMTRDTSIGTAYMELRSLTSDDTAIYYCTTGGWISLYYDSSYYPNFDHWGQGTLLTVSS
VL: TSLLTQPASVSGSPGQSITISCTGTKYDVGSHDLVSWYQQYPGKVPKYMIYEVNKRPSGVSNRFSGSKSGNTASLTISGLRAEDEADYYCCSFGGSATVVCGGGTKVTVL
notes: Recombinant IgG
As for B5, the Kd with Man9-V3 glycopeptide [3] was found to be 188 nM.
